The target of one experiment is T1, human GIP receptor (human, UniProt P48546 22-466).
T1 construct: whole, on cells; also called hGIPR; hGIP-R
T1 sequence (looked up): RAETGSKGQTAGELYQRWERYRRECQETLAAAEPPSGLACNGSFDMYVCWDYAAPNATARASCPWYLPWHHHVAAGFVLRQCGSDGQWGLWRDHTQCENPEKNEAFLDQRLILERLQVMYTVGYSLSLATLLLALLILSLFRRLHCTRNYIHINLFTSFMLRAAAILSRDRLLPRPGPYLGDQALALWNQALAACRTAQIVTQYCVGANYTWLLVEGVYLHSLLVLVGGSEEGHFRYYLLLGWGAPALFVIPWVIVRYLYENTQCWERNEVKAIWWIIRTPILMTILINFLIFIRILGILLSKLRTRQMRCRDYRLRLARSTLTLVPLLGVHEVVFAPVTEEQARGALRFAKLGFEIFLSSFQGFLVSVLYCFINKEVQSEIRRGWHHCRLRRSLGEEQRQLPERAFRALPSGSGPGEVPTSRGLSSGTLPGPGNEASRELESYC
The experiment can be described thus: [125I]-GIP competition SPA, hGIPR membranes.

Another experiment deals with T2, human GLP-1 receptor (human, UniProt P43220 24-463).
T2 construct: whole, on cells; also called hGLP-1R; hGLP1R
The experiment can be described thus: [125I]-GLP-1 competition SPA, hGLP-1R membranes. The protocol: The binding buffer contains 25 mM HEPES, pH 7.4, 2.5 mM CaCl₂, 1 mM MgCl₂, 0.1% (w/v) bacitracin, 0.003% (w/v) TWEEN®-20, and Roche Complete™ Protease Inhibitors without EDTA.
Data are analyzed using four-parameter (curve maximum, curve minimum, IC₅₀, Hill slope) nonlinear regression routines (Genedata Screener, version 12.0.4, Genedata AG, Basal, Switzerland). […] Values for Kᵢ are reported as the geometric mean, with error expressed as the standard error of the mean (SEM) and n is equal to the number of independent replicates (determined in assays performed on different days). Geometric Means are calculated as follows: […]

Numbered stars: 1 amine (or outer) side, 2 acyl side, 3 side chain; on linkers, the order of the positions; unused ones are H or OH. Square brackets hold non-standard residues; d marks the D form. Side chains are listed from the residue outwards. Ends that are not written are not given here. * marks the point of attachment. C20 diacid = O=C(O)CCCCCCCCCCCCCCCCCCC(=O)*; C18 diacid = O=C(O)CCCCCCCCCCCCCCCCC(=O)*; γGlu = O=C(O)[C@H](CCC(=O)[*:2])N[*:1]; AEEA = NCCOCCOCC(=O)O; Aib = CC(C)(N)C(=O)O

B1: Example 271 (peptide)
peptide: Y[Aib]EGTFTSDYSILLDKK([AEEA-AEEA-γGlu-C18 diacid])AQ[Aib]EFIEYLIEGG-NH2
modifications: N-terminus assumed
SMILES: CC[C@H](C)[C@H](NC(=O)[C@H](CC(C)C)NC(=O)[C@H](Cc1ccc(O)cc1)NC(=O)[C@H](CCC(=O)O)NC(=O)[C@@H](NC(=O)[C@H](Cc1ccccc1)NC(=O)[C@H](CCC(=O)O)NC(=O)C(C)(C)NC(=O)[C@H](CCC(N)=O)NC(=O)[C@H](C)NC(=O)[C@H](CCCCNC(=O)COCCOCCNC(=O)COCCOCCNC(=O)CC[C@H](NC(=O)CCCCCCCCCCCCCCCCC(=O)O)C(=O)O)NC(=O)[C@H](CCCCN)NC(=O)[C@H](CC(=O)O)NC(=O)[C@H](CC(C)C)NC(=O)[C@H](CC(C)C)NC(=O)[C@@H](NC(=O)[C@H](CO)NC(=O)[C@H](Cc1ccc(O)cc1)NC(=O)[C@H](CC(=O)O)NC(=O)[C@H](CO)NC(=O)[C@@H](NC(=O)[C@H](Cc1ccccc1)NC(=O)[C@@H](NC(=O)CNC(=O)[C@H](CCC(=O)O)NC(=O)C(C)(C)NC(=O)[C@@H](N)Cc1ccc(O)cc1)[C@@H](C)O)[C@@H](C)O)[C@@H](C)CC)[C@@H](C)CC)C(=O)N[C@@H](CCC(=O)O)C(=O)NCC(=O)NCC(N)=O
Turning to B1, the inhibition constant (Ki) was 0.107 nM with human GIP receptor and 5.09 nM in the experiment with human GLP-1 receptor.

B2: Example 297 (peptide)
peptide: Y[Aib]EGTFTSDYSILLDKK([AEEA-AEEA-γGlu-C18 diacid])AQ[Aib]EFIEYLIAGG-NH2
modifications: N-terminus assumed
SMILES: CC[C@H](C)[C@H](NC(=O)[C@H](CC(C)C)NC(=O)[C@H](Cc1ccc(O)cc1)NC(=O)[C@H](CCC(=O)O)NC(=O)[C@@H](NC(=O)[C@H](Cc1ccccc1)NC(=O)[C@H](CCC(=O)O)NC(=O)C(C)(C)NC(=O)[C@H](CCC(N)=O)NC(=O)[C@H](C)NC(=O)[C@H](CCCCNC(=O)COCCOCCNC(=O)COCCOCCNC(=O)CC[C@H](NC(=O)CCCCCCCCCCCCCCCCC(=O)O)C(=O)O)NC(=O)[C@H](CCCCN)NC(=O)[C@H](CC(=O)O)NC(=O)[C@H](CC(C)C)NC(=O)[C@H](CC(C)C)NC(=O)[C@@H](NC(=O)[C@H](CO)NC(=O)[C@H](Cc1ccc(O)cc1)NC(=O)[C@H](CC(=O)O)NC(=O)[C@H](CO)NC(=O)[C@@H](NC(=O)[C@H](Cc1ccccc1)NC(=O)[C@@H](NC(=O)CNC(=O)[C@H](CCC(=O)O)NC(=O)C(C)(C)NC(=O)[C@@H](N)Cc1ccc(O)cc1)[C@@H](C)O)[C@@H](C)O)[C@@H](C)CC)[C@@H](C)CC)C(=O)N[C@@H](C)C(=O)NCC(=O)NCC(N)=O
For the molecule B2, the results for the inhibition constant (Ki) with human GIP receptor and with human GLP-1 receptor were 0.0958 nM and 2.98 nM, respectively.

B3: Example 319 (peptide)
peptide: Y[Aib]EGTFTSDYSILLDKK([AEEA-AEEA-γGlu-C20 diacid])AQ[Aib]EFIEYLIAGGPSSGAPPPS-NH2
modifications: N-terminus assumed
SMILES: CC[C@H](C)[C@H](NC(=O)[C@H](CC(C)C)NC(=O)[C@H](Cc1ccc(O)cc1)NC(=O)[C@H](CCC(=O)O)NC(=O)[C@@H](NC(=O)[C@H](Cc1ccccc1)NC(=O)[C@H](CCC(=O)O)NC(=O)C(C)(C)NC(=O)[C@H](CCC(N)=O)NC(=O)[C@H](C)NC(=O)[C@H](CCCCNC(=O)COCCOCCNC(=O)COCCOCCNC(=O)CC[C@H](NC(=O)CCCCCCCCCCCCCCCCCCC(=O)O)C(=O)O)NC(=O)[C@H](CCCCN)NC(=O)[C@H](CC(=O)O)NC(=O)[C@H](CC(C)C)NC(=O)[C@H](CC(C)C)NC(=O)[C@@H](NC(=O)[C@H](CO)NC(=O)[C@H](Cc1ccc(O)cc1)NC(=O)[C@H](CC(=O)O)NC(=O)[C@H](CO)NC(=O)[C@@H](NC(=O)[C@H](Cc1ccccc1)NC(=O)[C@@H](NC(=O)CNC(=O)[C@H](CCC(=O)O)NC(=O)C(C)(C)NC(=O)[C@@H](N)Cc1ccc(O)cc1)[C@@H](C)O)[C@@H](C)O)[C@@H](C)CC)[C@@H](C)CC)C(=O)N[C@@H](C)C(=O)NCC(=O)NCC(=O)N1CCC[C@H]1C(=O)N[C@@H](CO)C(=O)N[C@@H](CO)C(=O)NCC(=O)N[C@@H](C)C(=O)N1CCC[C@H]1C(=O)N1CCC[C@H]1C(=O)N1CCC[C@H]1C(=O)N[C@@H](CO)C(N)=O
As to B3, the values for the inhibitory constant (Ki) with human GIP receptor and with human GLP-1 receptor were 0.0349 nM and 3.61 nM, respectively.

The Ki is the equilibrium dissociation constant of an inhibitor or competing ligand from its target. A high value points to weaker binding.

The values are drawn from US20200024322A1 (Eli Lilly, published 2020).
